Measured values taken from US20140105889A1 (published 2014).

T1: human FcγRIIb (human, UniProt P31994 43-217)
T1 construct: also called FcγIIB; FcγRIIb extracellular region
T1 sequence: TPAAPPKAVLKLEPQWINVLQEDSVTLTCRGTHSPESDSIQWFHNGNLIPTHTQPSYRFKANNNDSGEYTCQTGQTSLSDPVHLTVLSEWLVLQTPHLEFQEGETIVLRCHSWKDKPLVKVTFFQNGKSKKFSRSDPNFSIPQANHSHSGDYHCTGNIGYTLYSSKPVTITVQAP

T2: human FcγRIIa type R (human, UniProt P12318 36-217)
T2 construct: also called Fcγ RIIaR; FcγRIIa(R)
T2 chain: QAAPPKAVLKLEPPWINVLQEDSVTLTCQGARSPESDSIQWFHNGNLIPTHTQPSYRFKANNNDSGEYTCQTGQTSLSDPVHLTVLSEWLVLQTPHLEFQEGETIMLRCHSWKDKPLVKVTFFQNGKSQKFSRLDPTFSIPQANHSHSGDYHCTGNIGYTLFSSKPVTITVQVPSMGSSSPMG


Columns and labels:
[1] = target: T1, human FcγRIIb; experiment: SPR (Biacore), antibody captured on chip, FcγR as analyte; binding amount divided by that of IL6R-F652/IL6R-L, times 100
[2] = target: T2, human FcγRIIa type R; experiment: as above

Binder	relative binding activity for FcγRIIb [1]	relative binding activity for FcγRIIaR [2]
IL6R-PD043/IL6R-L (antibody, human IgG1, PD variant: P238D/L234Y introduced into IL6R-F11 (EU numbering); copies: 2 + 2) heavy: QVQLQESGPGLVKPSETLSLTCAVSGHSISHDHAWSWVRQPPGEGLEWIGFISYSGITNYNPSLQGRVTISRDNSKNTLYLQMNSLRAEDTAVYYCARSLARTTAMDYWGEGTLVTVSSASTKGPSVFPLAPSSKSTSGGTAALGCLVKDYFPEPVTVSWNSGALTSGVHTFPAVLQSSGLYSLSSVVTVPSSSLGTQTYICNVNHKPSNTKVDKKVEPKSCDKTHTCPPCPAPEYLGGDSVFLFPPKPKDTLYISRTPEVTCVVVDVSHEDPEVKFNWYVDGVEVHNAKTKPREEQYNSTYRVVSVLTVLHQDWLNGKEYKCKVSNKALPAPIEKTISKAKGQPREPQVYTLPPSRDELTKNQVSLTCLVKGFYPSDIAVEWESNGQPENNYKTTPPVLDSDGSFFLYSKLTVDKSRWQQGNVFSCSVMHEALHYHYTQKSLSLSP light: DIQMTQSPSSLSASVGDRVTITCRASQDISSYLNWYQQKPGKAPKLLIYYTSRLHSGVPSRFSGSGSGTDFTFTISSLQPEDIATYYCQQGNTLPYTFGQGTKVEIK	112 % of the binding amount of IL6R-F652/IL6R-L	175 % of the binding amount of IL6R-F652/IL6R-L
IL6R-PD080/IL6R-L (antibody, PD variant: P238D/G237D introduced into IL6R-F11 (EU numbering); copies: 2 + 2) heavy: QVQLQESGPGLVKPSETLSLTCAVSGHSISHDHAWSWVRQPPGEGLEWIGFISYSGITNYNPSLQGRVTISRDNSKNTLYLQMNSLRAEDTAVYYCARSLARTTAMDYWGEGTLVTVSSASTKGPSVFPLAPSSKSTSGGTAALGCLVKDYFPEPVTVSWNSGALTSGVHTFPAVLQSSGLYSLSSVVTVPSSSLGTQTYICNVNHKPSNTKVDKKVEPKSCDKTHTCPPCPAPELLGDDSVFLFPPKPKDTLYISRTPEVTCVVVDVSHEDPEVKFNWYVDGVEVHNAKTKPREEQYNSTYRVVSVLTVLHQDWLNGKEYKCKVSNKALPAPIEKTISKAKGQPREPQVYTLPPSRDELTKNQVSLTCLVKGFYPSDIAVEWESNGQPENNYKTTPPVLDSDGSFFLYSKLTVDKSRWQQGNVFSCSVMHEALHYHYTQKSLSLSP light: DIQMTQSPSSLSASVGDRVTITCRASQDISSYLNWYQQKPGKAPKLLIYYTSRLHSGVPSRFSGSGSGTDFTFTISSLQPEDIATYYCQQGNTLPYTFGQGTKVEIK	127 % of the binding amount of IL6R-F652/IL6R-L	222 % of the binding amount of IL6R-F652/IL6R-L
IL6R-PD087/IL6R-L (antibody, human IgG1, PD variant: P238D/G237M introduced into IL6R-F11 (EU numbering); copies: 2 + 2) heavy: QVQLQESGPGLVKPSETLSLTCAVSGHSISHDHAWSWVRQPPGEGLEWIGFISYSGITNYNPSLQGRVTISRDNSKNTLYLQMNSLRAEDTAVYYCARSLARTTAMDYWGEGTLVTVSSASTKGPSVFPLAPSSKSTSGGTAALGCLVKDYFPEPVTVSWNSGALTSGVHTFPAVLQSSGLYSLSSVVTVPSSSLGTQTYICNVNHKPSNTKVDKKVEPKSCDKTHTCPPCPAPELLGMDSVFLFPPKPKDTLYISRTPEVTCVVVDVSHEDPEVKFNWYVDGVEVHNAKTKPREEQYNSTYRVVSVLTVLHQDWLNGKEYKCKVSNKALPAPIEKTISKAKGQPREPQVYTLPPSRDELTKNQVSLTCLVKGFYPSDIAVEWESNGQPENNYKTTPPVLDSDGSFFLYSKLTVDKSRWQQGNVFSCSVMHEALHYHYTQKSLSLSP light: DIQMTQSPSSLSASVGDRVTITCRASQDISSYLNWYQQKPGKAPKLLIYYTSRLHSGVPSRFSGSGSGTDFTFTISSLQPEDIATYYCQQGNTLPYTFGQGTKVEIK	109 % of the binding amount of IL6R-F652/IL6R-L	196 % of the binding amount of IL6R-F652/IL6R-L
IL6R-PD079/IL6R-L (antibody, human IgG1, PD variant: P238D/G237A introduced into IL6R-F11 (EU numbering); copies: 2 + 2) heavy: QVQLQESGPGLVKPSETLSLTCAVSGHSISHDHAWSWVRQPPGEGLEWIGFISYSGITNYNPSLQGRVTISRDNSKNTLYLQMNSLRAEDTAVYYCARSLARTTAMDYWGEGTLVTVSSASTKGPSVFPLAPSSKSTSGGTAALGCLVKDYFPEPVTVSWNSGALTSGVHTFPAVLQSSGLYSLSSVVTVPSSSLGTQTYICNVNHKPSNTKVDKKVEPKSCDKTHTCPPCPAPELLGADSVFLFPPKPKDTLYISRTPEVTCVVVDVSHEDPEVKFNWYVDGVEVHNAKTKPREEQYNSTYRVVSVLTVLHQDWLNGKEYKCKVSNKALPAPIEKTISKAKGQPREPQVYTLPPSRDELTKNQVSLTCLVKGFYPSDIAVEWESNGQPENNYKTTPPVLDSDGSFFLYSKLTVDKSRWQQGNVFSCSVMHEALHYHYTQKSLSLSP light: DIQMTQSPSSLSASVGDRVTITCRASQDISSYLNWYQQKPGKAPKLLIYYTSRLHSGVPSRFSGSGSGTDFTFTISSLQPEDIATYYCQQGNTLPYTFGQGTKVEIK	101 % of the binding amount of IL6R-F652/IL6R-L	138 % of the binding amount of IL6R-F652/IL6R-L
IL6R-PD094/IL6R-L (antibody, human IgG1, PD variant: P238D/G237W introduced into IL6R-F11 (EU numbering); copies: 2 + 2) heavy: QVQLQESGPGLVKPSETLSLTCAVSGHSISHDHAWSWVRQPPGEGLEWIGFISYSGITNYNPSLQGRVTISRDNSKNTLYLQMNSLRAEDTAVYYCARSLARTTAMDYWGEGTLVTVSSASTKGPSVFPLAPSSKSTSGGTAALGCLVKDYFPEPVTVSWNSGALTSGVHTFPAVLQSSGLYSLSSVVTVPSSSLGTQTYICNVNHKPSNTKVDKKVEPKSCDKTHTCPPCPAPELLGWDSVFLFPPKPKDTLYISRTPEVTCVVVDVSHEDPEVKFNWYVDGVEVHNAKTKPREEQYNSTYRVVSVLTVLHQDWLNGKEYKCKVSNKALPAPIEKTISKAKGQPREPQVYTLPPSRDELTKNQVSLTCLVKGFYPSDIAVEWESNGQPENNYKTTPPVLDSDGSFFLYSKLTVDKSRWQQGNVFSCSVMHEALHYHYTQKSLSLSP light: DIQMTQSPSSLSASVGDRVTITCRASQDISSYLNWYQQKPGKAPKLLIYYTSRLHSGVPSRFSGSGSGTDFTFTISSLQPEDIATYYCQQGNTLPYTFGQGTKVEIK	122 % of the binding amount of IL6R-F652/IL6R-L	593 % of the binding amount of IL6R-F652/IL6R-L
IL6R-PD081/IL6R-L (antibody, human IgG1, PD variant: P238D/G237E introduced into IL6R-F11 (EU numbering); copies: 2 + 2) heavy: QVQLQESGPGLVKPSETLSLTCAVSGHSISHDHAWSWVRQPPGEGLEWIGFISYSGITNYNPSLQGRVTISRDNSKNTLYLQMNSLRAEDTAVYYCARSLARTTAMDYWGEGTLVTVSSASTKGPSVFPLAPSSKSTSGGTAALGCLVKDYFPEPVTVSWNSGALTSGVHTFPAVLQSSGLYSLSSVVTVPSSSLGTQTYICNVNHKPSNTKVDKKVEPKSCDKTHTCPPCPAPELLGEDSVFLFPPKPKDTLYISRTPEVTCVVVDVSHEDPEVKFNWYVDGVEVHNAKTKPREEQYNSTYRVVSVLTVLHQDWLNGKEYKCKVSNKALPAPIEKTISKAKGQPREPQVYTLPPSRDELTKNQVSLTCLVKGFYPSDIAVEWESNGQPENNYKTTPPVLDSDGSFFLYSKLTVDKSRWQQGNVFSCSVMHEALHYHYTQKSLSLSP light: DIQMTQSPSSLSASVGDRVTITCRASQDISSYLNWYQQKPGKAPKLLIYYTSRLHSGVPSRFSGSGSGTDFTFTISSLQPEDIATYYCQQGNTLPYTFGQGTKVEIK	101 % of the binding amount of IL6R-F652/IL6R-L	117 % of the binding amount of IL6R-F652/IL6R-L
IL6R-PD095/IL6R-L (antibody, human IgG1, PD variant: P238D/G237Y introduced into IL6R-F11 (EU numbering); copies: 2 + 2) heavy: QVQLQESGPGLVKPSETLSLTCAVSGHSISHDHAWSWVRQPPGEGLEWIGFISYSGITNYNPSLQGRVTISRDNSKNTLYLQMNSLRAEDTAVYYCARSLARTTAMDYWGEGTLVTVSSASTKGPSVFPLAPSSKSTSGGTAALGCLVKDYFPEPVTVSWNSGALTSGVHTFPAVLQSSGLYSLSSVVTVPSSSLGTQTYICNVNHKPSNTKVDKKVEPKSCDKTHTCPPCPAPELLGYDSVFLFPPKPKDTLYISRTPEVTCVVVDVSHEDPEVKFNWYVDGVEVHNAKTKPREEQYNSTYRVVSVLTVLHQDWLNGKEYKCKVSNKALPAPIEKTISKAKGQPREPQVYTLPPSRDELTKNQVSLTCLVKGFYPSDIAVEWESNGQPENNYKTTPPVLDSDGSFFLYSKLTVDKSRWQQGNVFSCSVMHEALHYHYTQKSLSLSP light: DIQMTQSPSSLSASVGDRVTITCRASQDISSYLNWYQQKPGKAPKLLIYYTSRLHSGVPSRFSGSGSGTDFTFTISSLQPEDIATYYCQQGNTLPYTFGQGTKVEIK	124 % of the binding amount of IL6R-F652/IL6R-L	543 % of the binding amount of IL6R-F652/IL6R-L
IL6R-PD082/IL6R-L (antibody, human IgG1, PD variant: P238D/G237F introduced into IL6R-F11 (EU numbering); copies: 2 + 2) heavy: QVQLQESGPGLVKPSETLSLTCAVSGHSISHDHAWSWVRQPPGEGLEWIGFISYSGITNYNPSLQGRVTISRDNSKNTLYLQMNSLRAEDTAVYYCARSLARTTAMDYWGEGTLVTVSSASTKGPSVFPLAPSSKSTSGGTAALGCLVKDYFPEPVTVSWNSGALTSGVHTFPAVLQSSGLYSLSSVVTVPSSSLGTQTYICNVNHKPSNTKVDKKVEPKSCDKTHTCPPCPAPELLGFDSVFLFPPKPKDTLYISRTPEVTCVVVDVSHEDPEVKFNWYVDGVEVHNAKTKPREEQYNSTYRVVSVLTVLHQDWLNGKEYKCKVSNKALPAPIEKTISKAKGQPREPQVYTLPPSRDELTKNQVSLTCLVKGFYPSDIAVEWESNGQPENNYKTTPPVLDSDGSFFLYSKLTVDKSRWQQGNVFSCSVMHEALHYHYTQKSLSLSP light: DIQMTQSPSSLSASVGDRVTITCRASQDISSYLNWYQQKPGKAPKLLIYYTSRLHSGVPSRFSGSGSGTDFTFTISSLQPEDIATYYCQQGNTLPYTFGQGTKVEIK	108 % of the binding amount of IL6R-F652/IL6R-L	380 % of the binding amount of IL6R-F652/IL6R-L
IL6R-PD086/IL6R-L (antibody, human IgG1, PD variant: P238D/G237L introduced into IL6R-F11 (EU numbering); copies: 2 + 2) heavy: QVQLQESGPGLVKPSETLSLTCAVSGHSISHDHAWSWVRQPPGEGLEWIGFISYSGITNYNPSLQGRVTISRDNSKNTLYLQMNSLRAEDTAVYYCARSLARTTAMDYWGEGTLVTVSSASTKGPSVFPLAPSSKSTSGGTAALGCLVKDYFPEPVTVSWNSGALTSGVHTFPAVLQSSGLYSLSSVVTVPSSSLGTQTYICNVNHKPSNTKVDKKVEPKSCDKTHTCPPCPAPELLGLDSVFLFPPKPKDTLYISRTPEVTCVVVDVSHEDPEVKFNWYVDGVEVHNAKTKPREEQYNSTYRVVSVLTVLHQDWLNGKEYKCKVSNKALPAPIEKTISKAKGQPREPQVYTLPPSRDELTKNQVSLTCLVKGFYPSDIAVEWESNGQPENNYKTTPPVLDSDGSFFLYSKLTVDKSRWQQGNVFSCSVMHEALHYHYTQKSLSLSP light: DIQMTQSPSSLSASVGDRVTITCRASQDISSYLNWYQQKPGKAPKLLIYYTSRLHSGVPSRFSGSGSGTDFTFTISSLQPEDIATYYCQQGNTLPYTFGQGTKVEIK	112 % of the binding amount of IL6R-F652/IL6R-L	268 % of the binding amount of IL6R-F652/IL6R-L
